First the molecules themselves.
T1: GST-human NOGO-A56 (human, UniProt Q9NQC3 586-785)
T1 construct: GST-tagged fusion expressed in E. coli BL21 from pGEX-6P1; also called hNOGO; human NOGO 5+6 GST; not shown: Glutathione S-transferase tag encoded by vector pGEX-6P1 (N-terminal, with vector linker)
T1 sequence: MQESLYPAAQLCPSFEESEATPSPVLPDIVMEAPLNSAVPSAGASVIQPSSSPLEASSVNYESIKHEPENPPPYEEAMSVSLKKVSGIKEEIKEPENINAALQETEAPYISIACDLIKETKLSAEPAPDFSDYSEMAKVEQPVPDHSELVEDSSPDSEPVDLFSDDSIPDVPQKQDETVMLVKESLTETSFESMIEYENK

B1: H16L18 (antibody, human IgG1, kappa, V domains shown)
VH: QVQLVQSGAEVKKPGASVKVSCKASGYTFTSYWMHWVKQRPGQGLEWIGNINPSNGGTNYNEKFKSKATLTVDKSTSTAYMELSSLRSEDTAVYYCELGQGYWGQGTLVTVSS
VL: DIVMTQDPLSNPVTLGQPVSISCRSSKSLLYKDGKTYLNWFLQRPGQSPQLLIYLMSTRASGVSDRFSGSGSGTDFTLKISRVEAEDVGVYYCQQLVEYPLTFGQGTKLEIKR
B2: H23Lc (antibody, human IgG1, kappa, V domains shown)
VH: QVQLVQSGAEVKKPGASVKVSCKASGYTFTSYWMHWVKQRPGQGLEWIGNINPSNGGTNYNEKFKSKATMTVDTSTSTAYMELSSLRSEDTAVYYCELGQGYWGQGTLVTVSS
VL: DIVITQDELSNPVTSGESVSISCRSSKSLLYKDGKTYLNWFLQRPGQSPQLLIYLMSTRASGVSDRFSGSGSGTDFTLEISRVKAEDVGVYYCQQLVEYPLTFGAGTKLELKR
B3: H21L13 (antibody, human IgG1, kappa, V domains shown)
VH: QVQLVQSGAEVKKPGASVKVSCKASGYTFTSYWMHWVRQRPGQGLEWIGNINPSNGGTNYNEKFKSKATMTRDTSTSTAYMELSSLRSEDTAVYYCELGQGYWGQGTLVTVSS
VL: DIVMTQSPLSLPVTLGQPASISCRSSKSLLYKDGKTYLNWFQQRPGQSPQLLIYLMSTRASGVPDRFSGGGSGTDFTLKISRVEAEDVGVYYCQQLVEYPLTFGQGTKLEIKR
B4: H22Lc (antibody, human IgG1, kappa, V domains shown)
VH: QVQLVQSGAEVKKPGASVKVSCKASGYTFTSYWMHWVKQRPGQGLEWIGNINPSNGGTNYNEKFKSKATMTRDTSTSTAYMELSSLRSEDTAVYYCELGQGYWGQGTLVTVSS
VL: DIVITQDELSNPVTSGESVSISCRSSKSLLYKDGKTYLNWFLQRPGQSPQLLIYLMSTRASGVSDRFSGSGSGTDFTLEISRVKAEDVGVYYCQQLVEYPLTFGAGTKLELKR
B5: H19L16 (antibody, human IgG1, kappa, V domains shown)
VH: QVQLVQSGAEVKKPGASVKVSCKASGYTFTSYWMHWVRQRPGQGLEWIGNINPSNGGTNYNEKFKSRATMTRDTSTSTAYMELSSLRSEDTAVYYCELGQGYWGQGTLVTVSS
VL: DIVMTQSPLSNPVTLGQPVSISCRSSKSLLYKDGKTYLNWFLQRPGQSPQLLIYLMSTRASGVPDRFSGGGSGTDFTLKISRVEAEDVGVYYCQQLVEYPLTFGQGTKLEIKR
B6: H24L13 (antibody, human IgG1, kappa, V domains shown)
VH: QVQLVQSGAEVKKPGASVKVSCKASGYTFTSYWMHWVKQRPGQGLEWIGNINPSNGGTNYNEKFKSKATLTVDTSTSTAYMELSSLRSEDTAVYYCELGQGYWGQGTLVTVSS
VL: DIVMTQSPLSLPVTLGQPASISCRSSKSLLYKDGKTYLNWFQQRPGQSPQLLIYLMSTRASGVPDRFSGGGSGTDFTLKISRVEAEDVGVYYCQQLVEYPLTFGQGTKLEIKR
B7: H19L13 (antibody, human IgG1, kappa, V domains shown)
VH: QVQLVQSGAEVKKPGASVKVSCKASGYTFTSYWMHWVRQRPGQGLEWIGNINPSNGGTNYNEKFKSRATMTRDTSTSTAYMELSSLRSEDTAVYYCELGQGYWGQGTLVTVSS
VL: DIVMTQSPLSLPVTLGQPASISCRSSKSLLYKDGKTYLNWFQQRPGQSPQLLIYLMSTRASGVPDRFSGGGSGTDFTLKISRVEAEDVGVYYCQQLVEYPLTFGQGTKLEIKR
B8: H23L13 (antibody, human IgG1, kappa, V domains shown)
VH: QVQLVQSGAEVKKPGASVKVSCKASGYTFTSYWMHWVKQRPGQGLEWIGNINPSNGGTNYNEKFKSKATMTVDTSTSTAYMELSSLRSEDTAVYYCELGQGYWGQGTLVTVSS
VL: DIVMTQSPLSLPVTLGQPASISCRSSKSLLYKDGKTYLNWFQQRPGQSPQLLIYLMSTRASGVPDRFSGGGSGTDFTLKISRVEAEDVGVYYCQQLVEYPLTFGQGTKLEIKR

The target of this experiment is T1, GST-human NOGO-A56. The experiment in a line: SPR off-rate ranking, supernatant from small-scale transient transfection over immobilised GST-human NOGO-A56; single experiment.
Consider B1, for which the koff (commonly the rate constant with which the complex falls apart) came to 0.00566 s⁻¹. The molecule B2 had an off-rate (koff) of 0.00342 s⁻¹. B3 had a koff of 0.012 s⁻¹. Take B4: the off-rate (koff) was found to be 0.00467 s⁻¹. Next, B5: 0.00873 s⁻¹.

The molecule B6 came in with a koff of 0.00996 s⁻¹.

In the case of B7, the koff worked out at 0.013 s⁻¹.

Molecule B8 had an off-rate (koff) of 0.00956 s⁻¹.

(Values after patent EP1899377B1 (GLAXO GROUP LIMITED, dated 2012).)
